First the molecules themselves.
B1: bsAb009 (bispecific antibody)
heavy: QVQLVQSGVEVKKPGASVKVSCKASGYTFTNYYMYWVRQAPGQGLEWMGGINPSNGGTNFNEKFKNRVTLTTDSSTTTAYMELKSLQFDDTAVYYCARRDYRFDMGFDYWGQGTTVTVSSASTKGPSVFPLAPSSKSTSGGTAALGCLVKDYFPEPVTVSWNSGALTSGVHTFPAVLQSSGLYSLSSVVTVPSSSLGTQTYICNVNHKPSNTKVDKRVEPKSCDKTHTCPPCPAPEFEGGPSVFLFPPKPKDTLMISRTPEVTCVVVDVSHEDPEVKFNWYVDGVEVHNAKTKPREEQYNSTYRVVSVLTVLHQDWLNGKEYKCKVSNKALPASIEKTISKAKGQPREPQVYTLPPSREEMTKNQVSLTCLVKGFYPSDIAVEWESNGQPENNYKTTPPVLDSDGSFFLYSKLTVDKSRWQQGNVFSCSVMHEALHNHYTQKSLSLSPG
light: EIVLTQSPATLSLSPGERATLSCRASKGVSTSGYSYLHWYQQKPGQAPRLLIYLASYLESGVPARFSGSGSGTDFTLTISSLEPEDFAVYYCQHSRDLPLTFGGGTKVEIKRTVAAPSVFIFPPSDEQLKSGTASVVCLLNNFYPREAKVQWKVDNALQSGNSQESVTEQDSKDSTYSLSSTLTLSKADYEKHKVYACEVTHQGLSSPVTKSFNRGECGGGGSGGGGSGGGGSGGGGSQVQLVQSGAEVKKPGASVKLSCKASGYIFTRYYMYWVKQRPGQGLEWIGEINPNNGGTKFNEKFKNRATLTVDKSISTAYMELSRLRSDDTAVYYCSREDDYDGTPFAMDYWGQGTLVTVSSGGGGSGGGGSGGGGSGGGGSDIQMTQSPSSLSASVGDRVTITCHASQNINVWLSWYQQKPGKAPKLLIYKASNLHTGVPSRFTGSGSGTDFTFTISSLQPEDIATYYCQQGQTYPYTFGQGTKLEIK
B2: bsAb037 (bispecific antibody, not shown: small tags and cut ends; a dimerising Fc or GST)
heavy 1: QVQLVQSGVEVKKPGASVKVSCKASGYTFTNYYMYWVRQAPGQGLEWMGGINPSNGGTNFNEKFKNRVTLTTDSSTTTAYMELKSLQFDDTAVYYCARRDYRFDMGFDYWGQGTTVTVSS
heavy 2: DIQMTQSPSSLSASVGDRVTITCHASQNINVWLSWYQQKPGKAPKLLIYKASNLHTGVPSRFTGSGSGTDFTFTISSLQPEDIATYYCQQGQTYPYTFGQGTKLEIKGGGGSGGGGSGGGGSGGGGSQVQLVQSGAEVKKPGASVKLSCKASGYIFTRYYMYWVKQRPGQGLEWIGEINPNNGGTKFNEKFKNRATLTVDKSISTAYMELSRLRSDDTAVYYCSREDDYDGTPFAMDYWGQGTLVTVSSGGGGSGGGGSGGGGSGGGGS
light: B1 light
B3: bsAb021 (bispecific antibody)
heavy: QVQLVQSGAEVKKPGASVKLSCKASGYIFTRYYMYWVKQRPGQGLEWIGEINPNNGGTKFNEKFKNRATLTVDKSISTAYMELSRLRSDDTAVYYCSREDDYDGTPFAMDYWGQGTLVTVSSGGGGSGGGGSGGGGSGGGGSDIQMTQSPSSLSASVGDRVTITCHASQNINVWLSWYQQKPGKAPKLLIYKASNLHTGVPSRFTGSGSGTDFTFTISSLQPEDIATYYCQQGQTYPYTFGQGTKLEIKGGGGSGGGGSGGGGSGGGGSQVQLVQSGVEVKKPGASVKVSCKASGYTFTNYYMYWVRQAPGQGLEWMGGINPSNGGTNFNEKFKNRVTLTTDSSTTTAYMELKSLQFDDTAVYYCARRDYRFDMGFDYWGQGTTVTVSSASTKGPSVFPLAPSSKSTSGGTAALGCLVKDYFPEPVTVSWNSGALTSGVHTFPAVLQSSGLYSLSSVVTVPSSSLGTQTYICNVNHKPSNTKVDKRVEPKSCDKTHTCPPCPAPEFEGGPSVFLFPPKPKDTLMISRTPEVTCVVVDVSHEDPEVKFNWYVDGVEVHNAKTKPREEQYNSTYRVVSVLTVLHQDWLNGKEYKCKVSNKALPASIEKTISKAKGQPREPQVYTLPPSREEMTKNQVSLTCLVKGFYPSDIAVEWESNGQPENNYKTTPPVLDSDGSFFLYSKLTVDKSRWQQGNVFSCSVMHEALHNHYTQKSLSLSPG
light: EIVLTQSPATLSLSPGERATLSCRASKGVSTSGYSYLHWYQQKPGQAPRLLIYLASYLESGVPARFSGSGSGTDFTLTISSLEPEDFAVYYCQHSRDLPLTFGGGTKVEIKRTVAAPSVFIFPPSDEQLKSGTASVVCLLNNFYPREAKVQWKVDNALQSGNSQESVTEQDSKDSTYSLSSTLTLSKADYEKHKVYACEVTHQGLSSPVTKSFNRGEC
B4: bsAb034 (bispecific antibody, not shown: small tags and cut ends; a dimerising Fc or GST)
heavy (part 1 of 2): B2 heavy 1
heavy (part 2 of 2): GGGGSGGGGSGGGGSGGGGSQVQLVQSGAEVKKPGASVKLSCKASGYIFTRYYMYWVKQRPGQGLEWIGEINPNNGGTKFNEKFKNRATLTVDKSISTAYMELSRLRSDDTAVYYCSREDDYDGTPFAMDYWGQGTLVTVSSGGGGSGGGGSGGGGSGGGGSDIQMTQSPSSLSASVGDRVTITCHASQNINVWLSWYQQKPGKAPKLLIYKASNLHTGVPSRFTGSGSGTDFTFTISSLQPEDIATYYCQQGQTYPYTFGQGTKLEIK
heavy: B4 heavy (part 2 of 2)
light: B3 light

In the test the target is BTN3A expressed at the cell surface (human), O00481. The experiment in a line: cell-based or functional assay.
BTN3A expressed at the cell surface (human), O00481, sequence (O00481 30-513): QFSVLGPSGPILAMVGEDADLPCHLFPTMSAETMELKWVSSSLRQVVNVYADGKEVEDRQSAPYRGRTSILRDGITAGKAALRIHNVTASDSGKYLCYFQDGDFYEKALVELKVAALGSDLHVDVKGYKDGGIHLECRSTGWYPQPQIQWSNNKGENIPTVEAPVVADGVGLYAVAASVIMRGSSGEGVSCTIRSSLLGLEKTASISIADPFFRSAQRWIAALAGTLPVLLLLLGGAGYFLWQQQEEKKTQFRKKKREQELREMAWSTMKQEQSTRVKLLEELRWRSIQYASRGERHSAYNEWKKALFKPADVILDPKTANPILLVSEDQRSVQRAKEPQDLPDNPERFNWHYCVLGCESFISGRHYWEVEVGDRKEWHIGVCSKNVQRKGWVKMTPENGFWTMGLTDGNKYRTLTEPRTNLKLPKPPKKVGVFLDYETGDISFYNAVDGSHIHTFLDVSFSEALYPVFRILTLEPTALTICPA
In turn, B1 displayed a Jurkat-Vy9Vo2 TCR MOP activation at 0.5 nM (fold-change to medium) of 1 and a Jurkat-Vy9Vo2 TCR MOP activation at 5 nM (fold-change to medium) of 0.8.
The like results for B2 were, in that order, 1.2 and 1.7.
For B3 the same measures were 1.6 and 1.5.
For B4 the same measures were 0.9 and 1.1.

Values taken from patent US20260265379A1.
